Data taken from article PMC3078926, “Epistatic Roles for Pseudomonas aeruginosa MutS and DinB (DNA Pol IV) in Coping with Reactive Oxygen Species-Induced DNA Damage” (PLoS ONE, 2011).

Assays:
purified protein [1] = substrate: Nc1ccn([C@H]2C[C@H](O)[C@@H](COP(=O)(O)OP(=O)(O)OP(=O)(O)O)O2)c(=O)n1; assay: purified protein; assay type: biochemical, Pseudomonas aeruginosa; details: opposite undamaged template dG, 13/20-mer primer/template DNA 100 nM, 200 nM DinB, 10 mM MgCl2, pH 7.5, 25 °C
purified protein [2] = substrate: Nc1ncnc2c1ncn2[C@H]1C[C@H](O)[C@@H](COP(=O)(O)OP(=O)(O)OP(=O)(O)O)O1; assay: purified protein; assay type: biochemical, Pseudomonas aeruginosa; details: opposite template 8-oxo-dG (lesion), 13/20 8-oxo-dG-mer DNA 100 nM, 200 nM DinB, 10 mM MgCl2, pH 7.5, 25 °C

B1: P. aeruginosa DinB (DNA Pol IV) (Pseudomonas aeruginosa PAO1) (protein)
chain: MRKIIHIDCDCFYAALEMRDDPSLRGKALAVGGSPDKRGVVATCSYEARAYGVRSAMAMRTALKLCPDLLVVRPRFDVYRAVSKQIHAIFRDYTDLIEPLSLDEAYLDVSASPHFAGSATRIAQDIRRRVAEELHITVSAGVAPNKFLAKIASDWRKPDGLFVITPEQVDGFVAELPVAKLHGVGKVTAERLARMGIRTCADLRQGSKLSLVREFGSFGERLWGLAHGIDERPVEVDSRRQSVSVECTFDRDLPDLAACLEELPTLLEELDGRLQRLDGSYRPDKPFVKLKFHDFTQTTVEQSGAGRDLESYRQLLGQAFARGNRPVRLIGVGVRLLDLQGAHEQLRLF
notes: C-terminally hexahistidine-tagged, recombinant, purified as described earlier
- Km (purified protein [1]): 5.4 ± 2.3 µM
- kcat (purified protein [1]): 0.12 ± 0.01 s⁻¹
- kcat/Km (purified protein [1]): 22000 M⁻¹ s⁻¹
- Km (purified protein [2]): 15 ± 5.0 µM
- kcat (purified protein [2]): 0.066 ± 0.006 s⁻¹
- kcat/Km (purified protein [2]): 4000 M⁻¹ s⁻¹
